We go through four substances from patent US20260232827A1, “ANTIBODY-DRUG CONJUGATES TARGETING NAPI2B AND METHODS OF USE” (Zymeworks BC Inc., priority 2023, published 2026).

Assay [1] has as its target Fcγ receptor (FcγR) on the surface of immune effector cells. The assay can be described thus: cell-based or functional assay.
Assay [2] has as its target Construct 1 (chimeric human NaPi2b, swap in NaPi2c in 239-259) (human). In words: flow cytometry, transfected HEK293-6e cells, antibody 50 nM (footnote b).
Assay [3] addresses Construct 5 (chimeric human NaPi2b, swap in NaPi2a in 304-348) (human). The description is as above.
For assay [4], the target named is Construct 3 (chimeric human NaPi2b, swap in NaPi2c in 304-321) (human). The description is as above.
The target of assay [5] is Construct 7 (human NaPi2b del 317-326) (human) (UniProt O95436). The description is as above.
Assay [6] addresses Construct 2 (chimeric human NaPi2b, swap in NaPi2c in 280-301) (human). Described as above.
In assay [7] the target is Construct 4 (chimeric human NaPi2b, swap in NaPi2c in 341-358) (human). The assay is described as above.
In assay [8] the target is Construct 6 (human NaPi2b del 317-333) (human) (UniProt O95436). The assay is described as above.
In assay [9] the target is Full length human NaPi2b (sodium-dependent phosphate transporter 2B, SLC34A2) (human) (UniProt O95436). The assay is described as above.
For assay [10], the target named is Construct 1 (chimeric human NaPi2b, swap in NaPi2c in 239-259) (human). The assay can be described thus: flow cytometry, transfected HEK293-6e cells, antibody 0.5 nM (footnote b).
In assay [11] the target is Construct 5 (chimeric human NaPi2b, swap in NaPi2a in 304-348) (human). The assay is described as above.
Assay [12] deals with Construct 3 (chimeric human NaPi2b, swap in NaPi2c in 304-321) (human). Described as above.
Assay [13] deals with Construct 7 (human NaPi2b del 317-326) (human) (UniProt O95436). The assay is described as above.
The target in assay [14] is Construct 2 (chimeric human NaPi2b, swap in NaPi2c in 280-301) (human). Described as above.
In assay [15] the target is Construct 4 (chimeric human NaPi2b, swap in NaPi2c in 341-358) (human). The description is as above.
Assay [16] addresses Construct 6 (human NaPi2b del 317-333) (human) (UniProt O95436). Described as above.
In assay [17] the target is Full length human NaPi2b (sodium-dependent phosphate transporter 2B, SLC34A2) (human) (UniProt O95436). The description is as above.
In assay [18] the target is Construct 1 (chimeric human NaPi2b, swap in NaPi2c in 239-259) (human). In words: flow cytometry, transfected HEK293-6e cells, antibody 5 nM (footnote b).
Assay [19] has as its target Construct 5 (chimeric human NaPi2b, swap in NaPi2a in 304-348) (human). The assay is described as above.
The target of assay [20] is Construct 3 (chimeric human NaPi2b, swap in NaPi2c in 304-321) (human). The assay is described as above.
Assay [21] deals with Construct 7 (human NaPi2b del 317-326) (human) (UniProt O95436). The description is as above.
Assay [22] concerns the target Construct 2 (chimeric human NaPi2b, swap in NaPi2c in 280-301) (human). The assay is described as above.
Assay [23] addresses Construct 4 (chimeric human NaPi2b, swap in NaPi2c in 341-358) (human). The description is as above.
Assay [24] addresses Construct 6 (human NaPi2b del 317-333) (human) (UniProt O95436). The assay is described as above.
Assay [25] addresses Full length human NaPi2b (sodium-dependent phosphate transporter 2B, SLC34A2) (human) (UniProt O95436). Described as above.
For assay [26], the target named is human sodium-dependent phosphate transporter 2B (NaPi2b) (human) (UniProt O95436). The assay can be described thus: competition flow cytometry, human NaPi2b on HEK293-6e; row antibody unlabeled 100 ug/mL; competitor: labeled v18992 (MX35) 1 ug/mL.
Assay [27] shares this target. The assay can be described thus: competition flow cytometry, human NaPi2b on HEK293-6e; row antibody unlabeled 100 ug/mL; competitor: labeled v18993 (lifastuzumab) 1 ug/mL.
For assay [28] the target is unchanged. The assay can be described thus: competition flow cytometry, human NaPi2b on HEK293-6e; row antibody unlabeled 100 ug/mL; competitor: labeled v23855 1 ug/mL.
For assay [29] the target is unchanged. The assay can be described thus: competition flow cytometry, human NaPi2b on HEK293-6e; row antibody unlabeled 100 ug/mL; competitor: labeled v16955 (negative control) 1 ug/mL.

Sequence of Construct 7 (human NaPi2b del 317-326) (human) (O95436 other isoform, or with tags, fused parts or gaps): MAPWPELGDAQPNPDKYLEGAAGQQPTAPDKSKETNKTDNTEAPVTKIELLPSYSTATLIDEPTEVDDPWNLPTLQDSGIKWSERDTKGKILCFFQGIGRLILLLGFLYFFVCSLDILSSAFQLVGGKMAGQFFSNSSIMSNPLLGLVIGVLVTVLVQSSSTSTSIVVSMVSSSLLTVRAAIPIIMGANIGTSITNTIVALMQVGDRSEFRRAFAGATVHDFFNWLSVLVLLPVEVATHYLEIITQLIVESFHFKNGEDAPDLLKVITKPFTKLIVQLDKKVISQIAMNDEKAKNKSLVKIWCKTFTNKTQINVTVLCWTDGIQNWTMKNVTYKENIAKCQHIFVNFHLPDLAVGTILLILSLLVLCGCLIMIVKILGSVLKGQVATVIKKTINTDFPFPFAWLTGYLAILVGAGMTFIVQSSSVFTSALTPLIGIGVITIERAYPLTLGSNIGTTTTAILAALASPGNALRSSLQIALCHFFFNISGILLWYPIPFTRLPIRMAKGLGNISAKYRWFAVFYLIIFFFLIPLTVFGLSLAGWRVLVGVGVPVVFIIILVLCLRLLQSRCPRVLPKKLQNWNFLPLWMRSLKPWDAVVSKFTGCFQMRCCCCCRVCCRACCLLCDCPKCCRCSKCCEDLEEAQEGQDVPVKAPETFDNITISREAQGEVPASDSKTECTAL
Sequence of Construct 1 (chimeric human NaPi2b, swap in NaPi2c in 239-259) (human) (O95436 other isoform, or with tags, fused parts or gaps mutant): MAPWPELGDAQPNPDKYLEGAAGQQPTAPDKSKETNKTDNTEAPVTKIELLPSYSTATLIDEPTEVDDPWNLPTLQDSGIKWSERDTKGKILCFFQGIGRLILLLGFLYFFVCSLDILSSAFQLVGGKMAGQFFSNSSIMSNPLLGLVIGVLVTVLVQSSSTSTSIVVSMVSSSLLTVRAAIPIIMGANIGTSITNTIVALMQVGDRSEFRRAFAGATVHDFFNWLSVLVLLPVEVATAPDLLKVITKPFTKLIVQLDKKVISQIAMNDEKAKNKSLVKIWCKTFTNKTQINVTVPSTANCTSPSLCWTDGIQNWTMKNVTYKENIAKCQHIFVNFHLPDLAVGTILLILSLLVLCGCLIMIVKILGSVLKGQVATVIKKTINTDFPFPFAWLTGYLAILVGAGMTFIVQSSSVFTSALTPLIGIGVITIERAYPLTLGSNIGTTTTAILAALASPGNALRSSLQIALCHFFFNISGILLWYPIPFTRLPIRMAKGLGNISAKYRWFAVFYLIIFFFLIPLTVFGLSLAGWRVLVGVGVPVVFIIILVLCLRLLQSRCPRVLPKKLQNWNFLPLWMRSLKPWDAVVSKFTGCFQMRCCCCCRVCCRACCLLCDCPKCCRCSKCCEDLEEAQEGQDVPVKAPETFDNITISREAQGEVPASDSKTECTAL
Sequence of Construct 6 (human NaPi2b del 317-333) (human) (O95436 other isoform, or with tags, fused parts or gaps): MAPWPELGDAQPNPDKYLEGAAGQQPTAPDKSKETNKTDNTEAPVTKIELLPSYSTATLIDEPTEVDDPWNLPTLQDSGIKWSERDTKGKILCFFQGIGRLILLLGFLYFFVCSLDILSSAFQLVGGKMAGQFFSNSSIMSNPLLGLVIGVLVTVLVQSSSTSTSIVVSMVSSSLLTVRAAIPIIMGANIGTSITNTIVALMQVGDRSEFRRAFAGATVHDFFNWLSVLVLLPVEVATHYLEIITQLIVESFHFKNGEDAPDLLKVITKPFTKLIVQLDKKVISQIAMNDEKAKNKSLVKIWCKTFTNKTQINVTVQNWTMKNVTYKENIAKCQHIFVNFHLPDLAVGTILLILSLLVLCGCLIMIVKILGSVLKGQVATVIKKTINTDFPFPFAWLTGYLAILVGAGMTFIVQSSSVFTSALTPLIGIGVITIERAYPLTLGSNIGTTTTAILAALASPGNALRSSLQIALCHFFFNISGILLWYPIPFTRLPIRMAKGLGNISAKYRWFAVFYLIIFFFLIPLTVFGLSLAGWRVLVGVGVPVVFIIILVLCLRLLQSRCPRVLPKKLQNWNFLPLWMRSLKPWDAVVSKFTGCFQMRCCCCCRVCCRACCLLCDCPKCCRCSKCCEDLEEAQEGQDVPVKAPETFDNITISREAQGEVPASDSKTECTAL
Sequence of Construct 3 (chimeric human NaPi2b, swap in NaPi2c in 304-321) (human) (O95436 other isoform, or with tags, fused parts or gaps mutant): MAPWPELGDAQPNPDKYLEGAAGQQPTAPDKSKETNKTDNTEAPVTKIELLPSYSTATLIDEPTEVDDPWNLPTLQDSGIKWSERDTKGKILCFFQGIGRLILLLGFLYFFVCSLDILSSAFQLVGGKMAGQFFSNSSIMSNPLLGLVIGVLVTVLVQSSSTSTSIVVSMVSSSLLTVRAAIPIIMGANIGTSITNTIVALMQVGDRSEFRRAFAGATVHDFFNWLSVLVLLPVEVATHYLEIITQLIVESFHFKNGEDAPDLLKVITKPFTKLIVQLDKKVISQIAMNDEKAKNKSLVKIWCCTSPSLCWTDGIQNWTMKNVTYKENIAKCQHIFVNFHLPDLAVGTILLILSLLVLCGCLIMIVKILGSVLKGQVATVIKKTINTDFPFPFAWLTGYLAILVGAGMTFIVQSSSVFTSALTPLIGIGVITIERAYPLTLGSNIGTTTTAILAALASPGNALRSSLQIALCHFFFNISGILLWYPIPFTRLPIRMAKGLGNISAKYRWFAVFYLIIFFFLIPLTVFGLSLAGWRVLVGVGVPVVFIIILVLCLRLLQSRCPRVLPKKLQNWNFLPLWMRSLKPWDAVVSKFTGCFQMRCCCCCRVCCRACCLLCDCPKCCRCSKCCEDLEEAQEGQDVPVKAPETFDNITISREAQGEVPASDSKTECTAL
Sequence of Construct 2 (chimeric human NaPi2b, swap in NaPi2c in 280-301) (human) (O95436 other isoform, or with tags, fused parts or gaps mutant): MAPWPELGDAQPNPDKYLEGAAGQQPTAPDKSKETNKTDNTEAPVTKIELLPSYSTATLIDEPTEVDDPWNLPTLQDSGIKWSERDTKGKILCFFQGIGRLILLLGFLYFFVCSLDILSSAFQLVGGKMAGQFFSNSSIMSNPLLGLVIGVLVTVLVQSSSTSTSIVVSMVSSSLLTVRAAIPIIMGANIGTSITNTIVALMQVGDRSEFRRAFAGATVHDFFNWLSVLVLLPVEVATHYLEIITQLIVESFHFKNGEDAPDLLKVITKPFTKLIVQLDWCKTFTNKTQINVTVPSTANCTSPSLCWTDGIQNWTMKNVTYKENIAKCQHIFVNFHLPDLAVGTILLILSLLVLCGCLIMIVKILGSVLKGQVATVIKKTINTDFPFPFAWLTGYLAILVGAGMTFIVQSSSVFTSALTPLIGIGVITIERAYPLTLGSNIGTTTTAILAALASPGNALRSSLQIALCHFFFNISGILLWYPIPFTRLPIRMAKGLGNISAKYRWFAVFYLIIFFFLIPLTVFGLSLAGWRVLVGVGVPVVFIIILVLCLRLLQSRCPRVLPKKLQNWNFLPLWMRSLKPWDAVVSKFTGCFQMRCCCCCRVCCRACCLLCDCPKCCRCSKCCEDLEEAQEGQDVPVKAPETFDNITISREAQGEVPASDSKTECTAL
Sequence of Construct 5 (chimeric human NaPi2b, swap in NaPi2a in 304-348) (human) (O95436 other isoform, or with tags, fused parts or gaps mutant): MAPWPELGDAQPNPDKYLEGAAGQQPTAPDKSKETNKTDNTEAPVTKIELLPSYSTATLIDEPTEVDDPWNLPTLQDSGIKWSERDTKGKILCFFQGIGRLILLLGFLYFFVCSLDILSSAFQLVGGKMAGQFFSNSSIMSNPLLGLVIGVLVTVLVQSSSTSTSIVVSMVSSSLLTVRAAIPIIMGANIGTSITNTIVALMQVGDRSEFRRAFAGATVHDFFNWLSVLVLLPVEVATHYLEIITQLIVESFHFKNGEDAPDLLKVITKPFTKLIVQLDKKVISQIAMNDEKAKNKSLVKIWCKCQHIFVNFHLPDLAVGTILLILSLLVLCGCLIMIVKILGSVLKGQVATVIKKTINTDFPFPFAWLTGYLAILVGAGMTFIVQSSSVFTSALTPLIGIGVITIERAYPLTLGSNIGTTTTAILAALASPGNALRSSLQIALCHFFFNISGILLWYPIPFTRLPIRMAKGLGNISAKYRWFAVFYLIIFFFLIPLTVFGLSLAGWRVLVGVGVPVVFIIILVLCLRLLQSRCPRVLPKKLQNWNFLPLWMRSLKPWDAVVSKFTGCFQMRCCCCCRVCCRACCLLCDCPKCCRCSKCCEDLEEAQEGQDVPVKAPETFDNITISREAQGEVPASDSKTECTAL
Sequence of Construct 4 (chimeric human NaPi2b, swap in NaPi2c in 341-358) (human) (O95436 other isoform, or with tags, fused parts or gaps mutant): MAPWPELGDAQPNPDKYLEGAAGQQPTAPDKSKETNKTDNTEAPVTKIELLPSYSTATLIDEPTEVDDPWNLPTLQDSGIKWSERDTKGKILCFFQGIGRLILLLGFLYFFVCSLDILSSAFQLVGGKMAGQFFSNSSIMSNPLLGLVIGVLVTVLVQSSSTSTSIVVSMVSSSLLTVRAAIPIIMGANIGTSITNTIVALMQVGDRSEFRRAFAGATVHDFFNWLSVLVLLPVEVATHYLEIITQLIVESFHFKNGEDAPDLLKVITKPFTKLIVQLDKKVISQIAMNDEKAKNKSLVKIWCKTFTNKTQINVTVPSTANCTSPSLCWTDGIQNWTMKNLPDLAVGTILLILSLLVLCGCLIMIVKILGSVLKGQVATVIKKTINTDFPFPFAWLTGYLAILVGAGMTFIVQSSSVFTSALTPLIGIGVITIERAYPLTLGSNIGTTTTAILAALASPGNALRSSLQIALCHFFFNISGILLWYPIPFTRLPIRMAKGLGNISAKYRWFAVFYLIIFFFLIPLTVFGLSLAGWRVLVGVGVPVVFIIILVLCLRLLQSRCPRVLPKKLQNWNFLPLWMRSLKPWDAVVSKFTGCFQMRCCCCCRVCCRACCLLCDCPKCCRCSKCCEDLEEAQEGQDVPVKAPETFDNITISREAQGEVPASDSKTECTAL

In assay [1], “Lifastuzumab (v18993, wild-type Fc) (antibody)” displayed a % ADCC at 0.0192 nM (25 PBMCs:1 IGROV-1, 4 h) of 5.96%; a % ADCC at 0.48 nM (25 PBMCs:1 IGROV-1, 4 h) of 14%; a % ADCC at 12 nM (25 PBMCs:1 IGROV-1, 4 h) of 14.4%.

As to “reference anti-NaPi2a antibody (polyclonal rabbit anti-human SLC34A1; Atlas Biotechnologies Inc; Cat. No. HPA051255)”, the Background-Subtracted AF647 Mean Fluorescence Intensity in assay [2] came out at 616 MFI; in assay [3] it was 339 MFI; in [4] it was 375 MFI; in assay [5], 123 MFI; in assay [6], 230 MFI; in [7] it was 511 MFI. The Background-Subtracted AF647 Mean Fluorescence Intensity in assay [8] is 291 MFI; in assay [9], 107 MFI; in assay [10] it was 99 MFI; in assay [11], 119 MFI; in assay [12] it was 40 MFI; in assay [13], 369 MFI. Moreover, the Background-Subtracted AF647 Mean Fluorescence Intensity is 70 MFI in assay [14]; 146 MFI in assay [15]; 666 MFI in [16]; 596 MFI in [17]; 859 MFI in assay [18]; 546 MFI in assay [19]. Moreover, the Background-Subtracted AF647 Mean Fluorescence Intensity in [20] stood at 411 MFI; in assay [21] it was 1 MFI; in assay [22], 222 MFI; in assay [23] it was 250 MFI; in [24], 283 MFI; in assay [25] it was 97 MFI.

With “v16955 (Palivizumab, anti-RSV, negative control of Example 9) (antibody)”, the % Inhibition vs. irrelevant mAb in [26], in assay [27], in [28] and in [29] was 0% in each case.

In the case of v18992 (Fc wild-type MX-35) (antibody), in [1], the ADCC EC50 (nM) (25 PBMCs:1 IGROV-1, 4-hour incubation) was found to be 0.035 nM and the ADCP EC50 (nM) (2 Macs:1 IGROV-1, 2-hour incubation) came to 0.043 nM.
